{"source": "paper PMC7852052", "key": {"TNFR1-Fc": {"target": "TNFR1-Fc (UniProt P25118)", "sequence (P25118 30-212)": "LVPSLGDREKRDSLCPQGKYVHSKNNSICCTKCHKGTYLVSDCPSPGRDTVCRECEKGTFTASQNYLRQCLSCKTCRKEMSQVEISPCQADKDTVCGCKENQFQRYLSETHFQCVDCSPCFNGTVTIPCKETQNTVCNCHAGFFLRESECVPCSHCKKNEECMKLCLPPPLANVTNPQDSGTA", "test": "BLI"}, "TNFR2-Fc": {"target": "TNFR2-Fc (UniProt P25119)", "sequence (P25119 23-258)": "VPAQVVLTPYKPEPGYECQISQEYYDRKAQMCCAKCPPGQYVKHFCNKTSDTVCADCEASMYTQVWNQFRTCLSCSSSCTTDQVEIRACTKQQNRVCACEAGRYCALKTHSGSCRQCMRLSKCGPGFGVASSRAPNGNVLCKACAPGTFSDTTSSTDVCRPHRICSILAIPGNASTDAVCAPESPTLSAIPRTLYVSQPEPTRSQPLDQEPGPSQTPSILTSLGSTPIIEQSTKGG", "test": "BLI"}}, "data": [{"substance": "mutated NGR-TNFα with valine at the start of TNFα (NGR-TNFα-V)", "values": [{"measurement": "Kd", "setting": "TNFR1-Fc", "value": 0.526, "unit": "nM"}, {"measurement": "Kd", "setting": "TNFR2-Fc", "value": 2.45, "unit": "nM"}]}, {"substance": "native NGR-TNFα with leucine at the start of TNFα (NGR-TNFα-L)", "values": [{"measurement": "Kd", "setting": "TNFR1-Fc", "value": 0.741, "unit": "nM"}, {"measurement": "Kd", "setting": "TNFR2-Fc", "value": 4.63, "unit": "nM"}]}, {"substance": "mutated murine TNFα with valine at the start (TNFα-V) (ligand)", "values": [{"measurement": "Kd", "setting": "TNFR1-Fc", "value": 0.326, "unit": "nM"}, {"measurement": "Kd", "setting": "TNFR2-Fc", "value": 1.86, "unit": "nM"}]}, {"substance": "native murine TNFα with leucine at the start (TNFα-L) (ligand)", "values": [{"measurement": "Kd", "setting": "TNFR1-Fc", "value": 0.309, "unit": "nM"}, {"measurement": "Kd", "setting": "TNFR2-Fc", "value": 2.1, "unit": "nM"}]}]}
